According to patent publication US20170312343A1, “Uses of FAHD1” (UNIVERSITÄT INNSBRUCK, priority 2014, published 2017):

What was measured:
FAHD1 = biological target: T1, FAHD1 (Homo sapiens, UniProt Q6P587); assay: oxalate inhibitor assay (oxaloacetate decarboxylase assay); assay type: biochemical; settings: purified recombinant wild-type FAHD1, room temperature, pH 7.4, absorbance 255 nm, FIG. 2C; read-out: IC50, inhibition of oxaloacetate decarboxylation by FAHD1
T1 construct: His-tag (N); S-tag (N); made in house; host or cells: E. coli
T1 sequence (Q6P587 25-221): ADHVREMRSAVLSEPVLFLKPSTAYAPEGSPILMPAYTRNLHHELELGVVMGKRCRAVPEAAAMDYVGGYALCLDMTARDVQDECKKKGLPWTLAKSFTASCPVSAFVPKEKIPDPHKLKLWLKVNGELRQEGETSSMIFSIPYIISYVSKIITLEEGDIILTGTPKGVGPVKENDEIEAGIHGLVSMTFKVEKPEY
Experimental: (§1) N-terminally His- and S-tagged versions of human wild-type FAHD1 and a double mutant (Asp102Ala, Arg106Ala) were recombinantly expressed in E. coli and purified as reported previously (Pircher et al., J Biol Chem, 2011, 286(42)).
(§2) For measurement of oxaloacetate decarboxylase rates, 1 ml samples of 25 μM to 1 mM oxaloacetate in assay buffer (50 mM Tris-HCl, 100 mM KCl, 1 mM MgCl2, pH 7.4) containing purified FAHD1, FAHD1mut (3-60 μg, depending on substrate concentration) or no enzyme were prepared. Samples were incubated at room temperature and analysed in regular time intervals by measuring absorbance (infinite M200, Tecan) at 255 nm (ε=1070 M^−1 cm^−1) in disposable UV-cuvettes (Brand). Reaction mixtures containing no substrate were used as blank. For the oxalate inhibitor assay, the sample buffer was supplemented with 200 μM sodium oxalate. All rates were corrected for auto-decarboxylation under assay conditions.

[1] = oxaloacetate decarboxylase assay, photometric, enzyme kinetics of purified FAHD1; assay type: biochemical, human; settings: purified wild-type enzyme, room temperature, pH 7.4, FIG. 2A
Experimental: as §1, §2

Row | Molecule | IC50 (FAHD1) | Km [1] | Vmax of oxaloacetate degradation [1]
1 | O=C([O-])C(=O)[O-].[Na+].[Na+] [oxalate, sodium oxalate] | ~20 µM | – | –
2 | fumarylacetoacetate hydrolase domain containing protein 1 (protein, UniProt Q6P587 25-221, looked up, recombinant human wild-type FAHD1 expressed in E. coli) Oxaloacetate tautomerase …: ADHVREMRSAVLSEPVLFLKPSTAYAPEGSPILMPAYTRNLHHELELGVVMGKRCRAVPEAAAMDYVGGYALCLDMTARDVQDECKKKGLPWTLAKSFTASCPVSAFVPKEKIPDPHKLKLWLKVNGELRQEGETSSMIFSIPYIISYVSKIITLEEGDIILTGTPKGVGPVKENDEIEAGIHGLVSMTFKVEKPEY | – | 32 µM | 0.21 µmol/min/mg
